Measured values from patent publication US20260028403A1 (Zymeworks, published 2026).
One block for each binder: values may come before it.

Experiments:
[1] = target: T1, Recombinant human CD3 epsilon/delta heterodimer, his tag protein (Acro Biosystems) (human, UniProt P07766 23-126; P04234 22-105); test: SPR Biacore T200, CD3 e/d-his on CM5, construct injected, 1:1 model;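 also: measured at 25 °C in HEPES-buffered saline with EDTA and Tween 20 at pH 7.4, values are means of three independent runs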
T1 construct: bought
Method: All SPR binding experiments were carried out using a BiacoreT200 instrument at 25° C. with 10 mM HEPES, 150 mM NaCl, 3 mM EDTA, and 0.05% Tween 20 at pH 7.4. Recombinant human CD3 epsilon/delta heterodimer, his tag protein (Acro Biosystems) was covalently immobilized on CM5 sensor chips by amine coupling. Purified antibody constructs to be tested were indirectly captured on the sensor chip by binding to the recombinant CD3 protein when injected at 30 μL/min for 140-500 s following a dissociation for 600-1200 s. Resultant kₒₙ, koff and KD values were determined from fitting the sensorgrams using the 1:1 binding model with reported values as the mean of three independent runs.

[2] = target: T2, Recombinant human/cynomolgus/rhesus macaque CD28 mouse IgG2a Fc fusion protein (Acro Biosystems) (human/cynomolgus/rhesus macaque, UniProt P10747 19-152); test: SPR Biacore T200, CD28-mIgG2a Fc on CM5, construct injected, 1:1 model;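 also: fc fusion captured by amine coupling, run at 25 °C in HEPES buffer pH 7.4, association 140-500 s then dissociation 600-1200 s, values averaged over three independent runs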
T2 construct: bought; also called huCD28
Method: All SPR binding experiments were carried out using a BiacoreT200 instrument at 25° C. with 10 mM HEPES, 150 mM NaCl, 3 mM EDTA, and 0.05% Tween 20 at pH 7.4. Recombinant human/cynomolgus/rhesus macaque CD28 mouse IgG2a Fc fusion protein (Acro Biosystems) was covalently immobilized on CM5 sensor chips by amine coupling. Purified antibody constructs to be tested were injected on the sensor chip at 30 μL/min for 140-500 s following a dissociation for 600-1200 s. Resultant kₒₙ, koff and KD values were determined from fitting the sensorgrams using the 1:1 binding model with reported values as the mean of three independent runs.

[3] = target: T3, CD28 on primary human T cells (human, UniProt P10747 19-220); test: cell-based or functional assay
[4] = target: T3, CD28 on primary human T cells; test: cell-based or functional assay; remark: listed apart in the source
[5] = target: T2, Recombinant human/cynomolgus/rhesus …; test: SPR, in-format anti-CD28 variants, huCD28

Kd [1]: 106 nM
koff [1]: 0.0129 s⁻¹
kon [1]: 121000 M⁻¹ s⁻¹
Kd [2]: 61.4 nM
koff [2]: 0.00692 s⁻¹
kon [2]: 113000 M⁻¹ s⁻¹
B1: v37637 (trispecific antibody, human IgG1, lambda, L234A L235A)
heavy 1: not shown
heavy 2: QVQLVESGGGLVQPGGSLRLSCSVSGIDLSSNPMIWVRQAPGKGLQYIGIIDTDGSTYYADWAKGRFTISKDSTTVYLQINSPRAEDTAVYYCARRLHGSSNGYYDDLWGQGTLVTVSSGGGGSGGGGSGGGGSGGGGSDGQMTQSPSSVSASVGDRVTITCQASQSIYSYLSWYQQKPGQRPKLLIYKASTLASGVPSRFSGSGSGTDFTLTISSVQPEDFATYYCQQGYTVTNVDKNTFGGGTKVEIKGGGGSGEVQLVESGGGLVQPGGSLRLSCAASGVTFNYYGMSWIRQAPGKGLEWVASITSSGGRIYYPDSVKGRFTISRENTQKTLYLQMNSLRAEDTAVYYCTLDGRDGWVAYWGQGTLVTVSSASTKGPSVFPLAPSSKSTSGGTAALGCLVKDYFPEPVTVSWNSGALTSGVHTFPAVLQSSGLYSLSSVVTVPSSSLGTQTYICNVNHKPSNTKVDKKVEPKSCDKTHTCPPCPAPEAAGGPSVFLFPPKPKDTLMISRTPEVTCVVVSVSHEDPEVKFNWYVDGVEVHNAKTKPREEQYNSTYRVVSVLTVLHQDWLNGKEYKCKVSNKALPAPIEKTISKAKGQPREPQVYVLPPSRDELTKNQVSLLCLVKGFYPSDIAVEWESNGQPENNYLTWPPVLDSDGSFFLYSKLTVDKSRWQQGNVFSCSVMHEALHNHYTQKSLSLSPG
light: NFMLTQPHSVSESPGKTVTISCKRNTGNIGSNYVNWYQQHEGSSPTTIIYRNDKRPDGVSDRFSGSIDRSSKSASLTISNLKTEDEADYFCQSYSSGFIFGGGTKLTVLGQPKAAPSVTLFPPSSEELQANKATLVCLISDFYPGAVTVAWKADSSPVKAGVETTTPSKQSNNKYAASSYLSLTPEQWKSHRSYSCQVTHEGSTVEKTVAPTECS
notes: Het Fc, FcKO; also called Cldn18.2xCD3xCD28 trispecific

IL-2 maximum cytokine, T cells alone [4]: 82.9 pg/mL
IL-2 maximum cytokine, T cells with SNU 601 cells [4]: 4030 pg/mL
TNFa maximum cytokine, T cells alone [4]: 25 pg/mL
TNFa maximum cytokine, T cells with SNU 601 cells [4]: 513 pg/mL
Fold-change from WT [5]: 2.2 fold
Kd [5]: 48.6 nM
koff [5]: 0.00466 s⁻¹
kon [5]: 95800 M⁻¹ s⁻¹
B2: v37683 (trispecific antibody, human IgG1, kappa, L234A L235A)
heavy 1: not shown
heavy 2: QVQLVESGGGLVQPGGSLRLSCSVSGIDLSSNPMIWVRQAPGKGLQYIGIIDTDGSTYYADWAKGRFTISKDSTTVYLQINSPRAEDTAVYYCARRLHGSSNGYYDDLWGQGTLVTVSSGGGGSGGGGSGGGGSGGGGSDGQMTQSPSSVSASVGDRVTITCQASQSIYSYLSWYQQKPGQRPKLLIYKASTLASGVPSRFSGSGSGTDFTLTISSVQPEDFATYYCQQGYTVTNVDKNTFGGGTKVEIKAAEPKSSDKTHTCPPCPAPEAAGGPSVFLFPPKPKDTLMISRTPEVTCVVVSVSHEDPEVKFNWYVDGVEVHNAKTKPREEQYNSTYRVVSVLTVLHQDWLNGKEYKCKVSNKALPAPIEKTISKAKGQPREPQVYVLPPSRDELTKNQVSLLCLVKGFYPSDIAVEWESNGQPENNYLTWPPVLDSDGSFFLYSKLTVDKSRWQQGNVFSCSVMHEALHNHYTQKSLSLSPG
light: DIQMTQSPSSLSASVGDRVTITCRASESVEYYVTSLMQWYQQKPGKAPKLLIYAASNVDSGVPSRFSGSGSGTDFTLTISSLQPEDIATYYCQQSRKVPFTFGGGTKVEIKRTVAAPSVFIFPPSDEQLKSGTASVVCLLNNFYPREAKVQWKVDNALQSGNSQESVTEQDSKDSTYSLSSTLTLSKADYEKHKVYACEVTHQGLSSPVTKSFNRGEC
notes: also called v37638 format, CD28 VH P1058A
IC50, T cell-dependent cytotoxicity on SNU 601 [3]: 0.00025 nM
Maximum Killing (%), SNU 601 [3]: 88.6%

Kd [1]: 225 nM
koff [1]: 0.0134 s⁻¹
kon [1]: 60800 M⁻¹ s⁻¹
Kd [2]: 31.8 nM
koff [2]: 0.00206 s⁻¹
kon [2]: 66500 M⁻¹ s⁻¹
B3: v37641 (trispecific antibody, human IgG1, kappa, L234A L235A)
heavy 1: QVQLVESGGGLVQPGGSLRLSCSVSGIDLSSNPMIWVRQAPGKGLQYIGIIDTDGSTYYADWAKGRFTISKDSTTVYLQINSPRAEDTAVYYCARRLHGSSNGYYDDLWGQGTLVTVSSGGGGSGGGGSGGGGSGGGGSDGQMTQSPSSVSASVGDRVTITCQASQSIYSYLSWYQQKPGQRPKLLIYKASTLASGVPSRFSGSGSGTDFTLTISSVQPEDFATYYCQQGYTVTNVDKNTFGGGTKVEIKGGGGSGQVQLQESGPGLVKPSETLSLTCAVSGFSLTSYGVHWIRQPPGKGLEWLGVIWPGGGTNFNSALMSRLTISEDTSKNQVSLKLSSVTAADTAVYYCARDRAYGNYLYAMDYWGQGTLVTVSSASTKGPSVFPLAPSSKSTSGGTAALGCLVKDYFPEPVTVSWNSGALTSGVHTFPAVLQSSGLYSLSSVVTVPSSSLGTQTYICNVNHKPSNTKVDKKVEPKSCDKTHTCPPCPAPEAAGGPSVFLFPPKPKDTLMISRTPEVTCVVVSVSHEDPEVKFNWYVDGVEVHNAKTKPREEQYNSTYRVVSVLTVLHQDWLNGKEYKCKVSNKALPAPIEKTISKAKGQPREPQVYVYPPSRDELTKNQVSLTCLVKGFYPSDIAVEWESNGQPENNYKTTPPVLDSDGSFALVSKLTVDKSRWQQGNVFSCSVMHEALHNHYTQKSLSLSPGGGGGSGNFMLTQPHSVSESPGKTVTISCKRNTGNIGSNYVNWYQQHEGSSPTTIIYRNDKRPDGVSDRFSGSIDRSSKSASLTISNLKTEDEADYFCQSYSSGFIFGGGTKLTVLGGGGSGGGGSGGGGSGGGGSEVQLVESGGGLVQPGGSLRLSCAASGVTFNYYGMSWIRQAPGKGLEWVASITSSGGRIYYPDSVKGRFTISRENTQKTLYLQMNSLRAEDTAVYYCTLDGRDGWVAYWGQGTLVTVSS
heavy 2: EPKSSDKTHTCPPCPAPEAAGGPSVFLFPPKPKDTLMISRTPEVTCVVVSVSHEDPEVKFNWYVDGVEVHNAKTKPREEQYNSTYRVVSVLTVLHQDWLNGKEYKCKVSNKALPAPIEKTISKAKGQPREPQVYVLPPSRDELTKNQVSLLCLVKGFYPSDIAVEWESNGQPENNYLTWPPVLDSDGSFFLYSKLTVDKSRWQQGNVFSCSVMHEALHNHYTQKSLSLSPG
light: B2 light
notes: second heavy chain is Fc only; Het Fc, FcKO; also called Cldn18.2xCD28xCD3 trispecific

Kd [1]: 492 nM
koff [1]: 0.0144 s⁻¹
kon [1]: 29200 M⁻¹ s⁻¹
Kd [2]: 23.9 nM
koff [2]: 0.00201 s⁻¹
kon [2]: 84100 M⁻¹ s⁻¹
B4: v37639 (trispecific antibody, human IgG1, kappa, L234A L235A)
heavy 1: not shown
heavy 2: B2 heavy 2
light: DIQMTQSPSSLSASVGDRVTITCRASESVEYYVTSLMQWYQQKPGKAPKLLIYAASNVDSGVPSRFSGSGSGTDFTLTISSLQPEDIATYYCQQSRKVPFTFGGGTKVEIKRTVAAPSVFIFPPSDEQLKSGTASVVCLLNNFYPREAKVQWKVDNALQSGNSQESVTEQDSKDSTYSLSSTLTLSKADYEKHKVYACEVTHQGLSSPVTKSFNRGECGGGGSGNFMLTQPHSVSESPGKTVTISCKRNTGNIGSNYVNWYQQHEGSSPTTIIYRNDKRPDGVSDRFSGSIDRSSKSASLTISNLKTEDEADYFCQSYSSGFIFGGGTKLTVLGGGGSGGGGSGGGGSGGGGSEVQLVESGGGLVQPGGSLRLSCAASGVTFNYYGMSWIRQAPGKGLEWVASITSSGGRIYYPDSVKGRFTISRENTQKTLYLQMNSLRAEDTAVYYCTLDGRDGWVAYWGQGTLVTVSS
notes: Het Fc, FcKO; also called Cldn18.2xCD28xCD3 trispecific

IL-2 maximum cytokine, T cells alone [4]: 293 pg/mL
IL-2 maximum cytokine, T cells with SNU 601 cells [4]: 3430 pg/mL
TNFa maximum cytokine, T cells alone [4]: 56.2 pg/mL
TNFa maximum cytokine, T cells with SNU 601 cells [4]: 516 pg/mL
Fold-change from WT [5]: 6.4 fold
Kd [5]: 143 nM
koff [5]: 0.0113 s⁻¹
kon [5]: 80600 M⁻¹ s⁻¹
B5: v37684 (trispecific antibody, human IgG1, kappa, L234A L235A)
heavy 1: not shown
heavy 2: B2 heavy 2
light: B2 light
notes: also called v37638 format, CD28 VH G1064S
IC50, T cell-dependent cytotoxicity on SNU 601 [3]: 0.00034 nM
Maximum Killing (%), SNU 601 [3]: 89.3%
